In patent publication US20260193342A1 (ZOETIS SERVICES, published 2026):

target: canine FcRn complex (FcRn-α subunit and β-microglobulin) (canine, UniProt A0A8I3PFR8 25-347, biotin on the BAP tag by BirA (Example 5 only)); experiment: SPR (Biacore), biotinylated FcRn on SA chip, IgG flowed, pH 6, 15 C
Sequence (A0A8I3PFR8 entry or part of it, one chain of several): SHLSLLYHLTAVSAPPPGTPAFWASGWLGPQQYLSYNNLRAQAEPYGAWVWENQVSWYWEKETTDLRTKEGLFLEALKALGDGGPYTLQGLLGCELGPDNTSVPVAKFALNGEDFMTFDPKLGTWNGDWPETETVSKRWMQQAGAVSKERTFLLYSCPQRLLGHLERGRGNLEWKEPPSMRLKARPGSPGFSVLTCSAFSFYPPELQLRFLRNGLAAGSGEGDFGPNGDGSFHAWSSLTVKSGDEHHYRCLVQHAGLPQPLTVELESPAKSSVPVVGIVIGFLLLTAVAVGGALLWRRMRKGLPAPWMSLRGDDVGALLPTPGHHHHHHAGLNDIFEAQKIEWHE

Binder | Kd
mAb2 of Table 4A, caninized anti-NGF antibody ZTS-841, canine IgGB, WT (antibody, also called ID No. 46) heavy: EVQLVESGGDLVKPGGSLRLSCVASGFTFSSHGMHWVRQSPGKGLQWVAVINSGGSSTYYTDAVKGRFTISRDNAKNTVYLQMNSLRAEDTAMYYCAKESVGGWEQLVGPHFDYWGQGTLVIVSSASTTAPSVFPLAPSCGSTSGSTVALACLVSGYFPEPVTVSWNSGSLTSGVHTFPSVLQSSGLYSLSSMVTVPSSRWPSETFTCNVAHPASKTKVDKPVPKRENGRVPRPPDCPKCPAPEMLGGPSVFIFPPKPKDTLLIARTPEVTCVVVDLDPEDPEVQISWFVDGKQMQTAKTQPREEQFNGTYRVVSVLPIGHQDWLKGKQFTCKVNNKALPSPIERTISKARGQAHQPSVYVLPPSREELSKNTVSLTCLIKDFFPPDIDVEWQSNGQQEPESKYRTTPPQLDEDGSYFLYSKLSVDKSRWQRGDTFICAVMHEALHNHYTQESLSHSPGK VL: QSVLTQPTSVSGSLGQRVTISCSGSTNNIGILGASWYQLFPGKAPKLLVYGNGNRPSGVPDRFSGADSGDSVTLTITGLQAEDEADYYCQSFDTTLGAHVFGGGTHLTVL | 91.5 nM
mAb2 of Table 4A, caninized anti-NGF antibody ZTS-841, canine IgGB, N434A (antibody, also called ID No. 47) heavy: EVQLVESGGDLVKPGGSLRLSCVASGFTFSSHGMHWVRQSPGKGLQWVAVINSGGSSTYYTDAVKGRFTISRDNAKNTVYLQMNSLRAEDTAMYYCAKESVGGWEQLVGPHFDYWGQGTLVIVSSASTTAPSVFPLAPSCGSTSGSTVALACLVSGYFPEPVTVSWNSGSLTSGVHTFPSVLQSSGLYSLSSMVTVPSSRWPSETFTCNVAHPASKTKVDKPVPKRENGRVPRPPDCPKCPAPEMLGGPSVFIFPPKPKDTLLIARTPEVTCVVVDLDPEDPEVQISWFVDGKQMQTAKTQPREEQFNGTYRVVSVLPIGHQDWLKGKQFTCKVNNKALPSPIERTISKARGQAHQPSVYVLPPSREELSKNTVSLTCLIKDFFPPDIDVEWQSNGQQEPESKYRTTPPQLDEDGSYFLYSKLSVDKSRWQRGDTFICAVMHEALHAHYTQESLSHSPGK VL: QSVLTQPTSVSGSLGQRVTISCSGSTNNIGILGASWYQLFPGKAPKLLVYGNGNRPSGVPDRFSGADSGDSVTLTITGLQAEDEADYYCQSFDTTLGAHVFGGGTHLTVL | 9.81 nM
mAb2 of Table 4A, caninized anti-NGF antibody ZTS-841, canine IgGB, N434F (antibody, also called ID No. 48) heavy: EVQLVESGGDLVKPGGSLRLSCVASGFTFSSHGMHWVRQSPGKGLQWVAVINSGGSSTYYTDAVKGRFTISRDNAKNTVYLQMNSLRAEDTAMYYCAKESVGGWEQLVGPHFDYWGQGTLVIVSSASTTAPSVFPLAPSCGSTSGSTVALACLVSGYFPEPVTVSWNSGSLTSGVHTFPSVLQSSGLYSLSSMVTVPSSRWPSETFTCNVAHPASKTKVDKPVPKRENGRVPRPPDCPKCPAPEMLGGPSVFIFPPKPKDTLLIARTPEVTCVVVDLDPEDPEVQISWFVDGKQMQTAKTQPREEQFNGTYRVVSVLPIGHQDWLKGKQFTCKVNNKALPSPIERTISKARGQAHQPSVYVLPPSREELSKNTVSLTCLIKDFFPPDIDVEWQSNGQQEPESKYRTTPPQLDEDGSYFLYSKLSVDKSRWQRGDTFICAVMHEALHFHYTQESLSHSPGK VL: QSVLTQPTSVSGSLGQRVTISCSGSTNNIGILGASWYQLFPGKAPKLLVYGNGNRPSGVPDRFSGADSGDSVTLTITGLQAEDEADYYCQSFDTTLGAHVFGGGTHLTVL | 1.92 nM
mAb2 of Table 4A, caninized anti-NGF antibody ZTS-841, canine IgGB, N434G (antibody, also called ID No. 49) heavy: EVQLVESGGDLVKPGGSLRLSCVASGFTFSSHGMHWVRQSPGKGLQWVAVINSGGSSTYYTDAVKGRFTISRDNAKNTVYLQMNSLRAEDTAMYYCAKESVGGWEQLVGPHFDYWGQGTLVIVSSASTTAPSVFPLAPSCGSTSGSTVALACLVSGYFPEPVTVSWNSGSLTSGVHTFPSVLQSSGLYSLSSMVTVPSSRWPSETFTCNVAHPASKTKVDKPVPKRENGRVPRPPDCPKCPAPEMLGGPSVFIFPPKPKDTLLIARTPEVTCVVVDLDPEDPEVQISWFVDGKQMQTAKTQPREEQFNGTYRVVSVLPIGHQDWLKGKQFTCKVNNKALPSPIERTISKARGQAHQPSVYVLPPSREELSKNTVSLTCLIKDFFPPDIDVEWQSNGQQEPESKYRTTPPQLDEDGSYFLYSKLSVDKSRWQRGDTFICAVMHEALHGHYTQESLSHSPGK VL: QSVLTQPTSVSGSLGQRVTISCSGSTNNIGILGASWYQLFPGKAPKLLVYGNGNRPSGVPDRFSGADSGDSVTLTITGLQAEDEADYYCQSFDTTLGAHVFGGGTHLTVL | 34.3 nM
mAb2 of Table 4A, caninized anti-NGF antibody ZTS-841, canine IgGB, N434L (antibody, also called ID No. 52) heavy: EVQLVESGGDLVKPGGSLRLSCVASGFTFSSHGMHWVRQSPGKGLQWVAVINSGGSSTYYTDAVKGRFTISRDNAKNTVYLQMNSLRAEDTAMYYCAKESVGGWEQLVGPHFDYWGQGTLVIVSSASTTAPSVFPLAPSCGSTSGSTVALACLVSGYFPEPVTVSWNSGSLTSGVHTFPSVLQSSGLYSLSSMVTVPSSRWPSETFTCNVAHPASKTKVDKPVPKRENGRVPRPPDCPKCPAPEMLGGPSVFIFPPKPKDTLLIARTPEVTCVVVDLDPEDPEVQISWFVDGKQMQTAKTQPREEQFNGTYRVVSVLPIGHQDWLKGKQFTCKVNNKALPSPIERTISKARGQAHQPSVYVLPPSREELSKNTVSLTCLIKDFFPPDIDVEWQSNGQQEPESKYRTTPPQLDEDGSYFLYSKLSVDKSRWQRGDTFICAVMHEALHLHYTQESLSHSPGK VL: QSVLTQPTSVSGSLGQRVTISCSGSTNNIGILGASWYQLFPGKAPKLLVYGNGNRPSGVPDRFSGADSGDSVTLTITGLQAEDEADYYCQSFDTTLGAHVFGGGTHLTVL | 1.83 nM
mAb1, caninized anti-IL31 antibody 34D03, canine IgGC, WT (antibody, VH/VL: the caninized 34D03 entries of the listing; also called ID No. 35) heavy: EVQLVESGGDLVKPGGSLRLSCVASGFTFSNYGMSWVRQAPGKGLQWVATISYGGSYTYYPDNIKGRFTISRDNAKNTLYLQMNSLRAEDTAMYYCVRGYGYDTMDYWGQGTLVTVSSASTTAPSVFPLAPSCGSQSGSTVALACLVSGYIPEPVTVSWNSVSLTSGVHTFPSVLQSSGLYSLSSMVTVPSSRWPSETFTCNVAHPATNTKVDKPVAKECECKCNCNNCPCPGCGLLGGPSVFIFPPKPKDILVTARTPTVTCVVVDLDPENPEVQISWFVDSKQVQTANTQPREEQSNGTYRVVSVLPIGHQDWLSGKQFKCKVNNKALPSPIEEIISKTPGQAHQPNVYVLPPSRDEMSKNTVTLTCLVKDFFPPEIDVEWQSNGQQEPESKYRMTPPQLDEDGSYFLYSKLSVDKSRWQRGDTFICAVMHEALHNHYTQISLSHSPGK VL: EIVMTQSPASLSLSQEEKVTITCKASQSVSFAGTGLMHWYQQKPGQAPKLLIYRASNLEAGVPSRFSGSGSGTDFSFTISSLEPEDVAVYYCQQSREYPWTFGQGTKLEIK | 100 nM
mAb2 of Table 4A, caninized anti-NGF antibody ZTS-841, canine IgGC, WT (antibody, also called ID No. 53) heavy: EVQLVESGGDLVKPGGSLRLSCVASGFTFSSHGMHWVRQSPGKGLQWVAVINSGGSSTYYTDAVKGRFTISRDNAKNTVYLQMNSLRAEDTAMYYCAKESVGGWEQLVGPHFDYWGQGTLVIVSSASTTAPSVFPLAPSCGSQSGSTVALACLVSGYIPEPVTVSWNSVSLTSGVHTFPSVLQSSGLYSLSSMVTVPSSRWPSETFTCNVAHPATNTKVDKPVAKECECKCNCNNCPCPGCGLLGGPSVFIFPPKPKDILVTARTPTVTCVVVDLDPENPEVQISWFVDSKQVQTANTQPREEQSNGTYRVVSVLPIGHQDWLSGKQFKCKVNNKALPSPIEEIISKTPGQAHQPNVYVLPPSRDEMSKNTVTLTCLVKDFFPPEIDVEWQSNGQQEPESKYRMTPPQLDEDGSYFLYSKLSVDKSRWQRGDTFICAVMHEALHNHYTQISLSHSPGK VL: QSVLTQPTSVSGSLGQRVTISCSGSTNNIGILGASWYQLFPGKAPKLLVYGNGNRPSGVPDRFSGADSGDSVTLTITGLQAEDEADYYCQSFDTTLGAHVFGGGTHLTVL | 52 nM
mAb1, caninized anti-IL31 antibody 34D03, canine IgGC, N434H (antibody) chain 1: EVQLVESGGDLVKPGGSLRLSCVASGFTFSNYGMSWVRQAPGKGLQWVATISYGGSYTYYPDNIKGRFTISRDNAKNTLYLQMNSLRAEDTAMYYCVRGYGYDTMDYWGQGTLVTVSSASTTAPSVFPLAPSCGSQSGSTVALACLVSGYIPEPVTVSWNSVSLTSGVHTFPSVLQSSGLYSLSSMVTVPSSRWPSETFTCNVAHPATNTKVDKPVAKECECKCNCNNCPCPGCGLLGGPSVFIFPPKPKDILVTARTPTVTCVVVDLDPENPEVQISWFVDSKQVQTANTQPREEQSNGTYRVVSVLPIGHQDWLSGKQFKCKVNNKALPSPIEEIISKTPGQAHQPNVYVLPPSRDEMSKNTVTLTCLVKDFFPPEIDVEWQSNGQQEPESKYRMTPPQLDEDGSYFLYSKLSVDKSRWQRGDTFICAVMHEALHHHYTQISLSHSPGK chain 2: EIVMTQSPASLSLSQEEKVTITCKASQSVSFAGTGLMHWYQQKPGQAPKLLIYRASNLEAGVPSRFSGSGSGTDFSFTISSLEPEDVAVYYCQQSREYPWTFGQGTKLEIKRNDAQPAVYLFQPSPDQLHTGSASVVCLLNSFYPKDINVKWKVDGVIQDTGIQESVTEQDKDSTYSLSSTLTMSSTEYLSHELYSCEITHKSLPSTLIKSFQRSEC | 87.9 nM
mAb2 of Table 4A, caninized anti-NGF antibody ZTS-841, canine IgGC, N434H (antibody, also called ID No. 54) heavy: EVQLVESGGDLVKPGGSLRLSCVASGFTFSSHGMHWVRQSPGKGLQWVAVINSGGSSTYYTDAVKGRFTISRDNAKNTVYLQMNSLRAEDTAMYYCAKESVGGWEQLVGPHFDYWGQGTLVIVSSASTTAPSVFPLAPSCGSQSGSTVALACLVSGYIPEPVTVSWNSVSLTSGVHTFPSVLQSSGLYSLSSMVTVPSSRWPSETFTCNVAHPATNTKVDKPVAKECECKCNCNNCPCPGCGLLGGPSVFIFPPKPKDILVTARTPTVTCVVVDLDPENPEVQISWFVDSKQVQTANTQPREEQSNGTYRVVSVLPIGHQDWLSGKQFKCKVNNKALPSPIEEIISKTPGQAHQPNVYVLPPSRDEMSKNTVTLTCLVKDFFPPEIDVEWQSNGQQEPESKYRMTPPQLDEDGSYFLYSKLSVDKSRWQRGDTFICAVMHEALHHHYTQISLSHSPGK VL: QSVLTQPTSVSGSLGQRVTISCSGSTNNIGILGASWYQLFPGKAPKLLVYGNGNRPSGVPDRFSGADSGDSVTLTITGLQAEDEADYYCQSFDTTLGAHVFGGGTHLTVL | 20.4 nM
mAb1, caninized anti-IL31 antibody 34D03, canine IgGD, WT (antibody, VH/VL: the caninized 34D03 entries of the listing; also called ID No. 37) heavy: EVQLVESGGDLVKPGGSLRLSCVASGFTFSNYGMSWVRQAPGKGLQWVATISYGGSYTYYPDNIKGRFTISRDNAKNTLYLQMNSLRAEDTAMYYCVRGYGYDTMDYWGQGTLVTVSSASTTAPSVFPLAPSCGSTSGSTVALACLVSGYFPEPVTVSWNSGSLTSGVHTFPSVLQSSGLYSLSSTVTVPSSRWPSETFTCNVVHPASNTKVDKPVPKESTCKCISPCPVPESLGGPSVFIFPPKPKDILRITRTPEITCVVLDLGREDPEVQISWFVDGKEVHTAKTQPREQQFNSTYRVVSVLPIEHQDWLTGKEFKCRVNHIGLPSPIERTISKARGQAHQPSVYVLPPSPKELSSSDTVTLTCLIKDFFPPEIDVEWQSNGQPEPESKYHTTAPQLDEDGSYFLYSKLSVDKSRWQQGDTFTCAVMHEALQNHYTDLSLSHSPGK VL: EIVMTQSPASLSLSQEEKVTITCKASQSVSFAGTGLMHWYQQKPGQAPKLLIYRASNLEAGVPSRFSGSGSGTDFSFTISSLEPEDVAVYYCQQSREYPWTFGQGTKLEIK | 34.5 nM
